From publication PMC11681865, “Oligomerization of protein arginine methyltransferase 1 and its functional impact on substrate arginine methylation” (The Journal of Biological Chemistry, 2024)

Key:
[1] = biological target: T1, PRMT1-WT (Homo sapiens, UniProt Q99873); experiment: Radiometric filter-binding assay, PRMT1-WT activity in presence of inactive PRMT1 mutants; format: biochemical; conditions: 0.05 μM PRMT1-WT, mutant 20 min on ice, 50 μM peptide, 2 μM [3H]-SAM and 48 μM SAM, 30 min
T1 construct: His-MBP (N, cleaved yes); made in house; host or cells: Escherichia coli BL21 (DE3) RIPL
Description: (§1) Constant PRMT1-WT concentration and various PRMT1-E153Q concentrations were maintained in the aqueous buffer prior to adding peptide and SAM to initiate the reaction. The reaction was quenched with isopropanol. The reaction mixture was loaded on the P81 filter paper that was air dried, washed, and immersed in scintillation cocktail for scintillation counting. […] To eliminate this possibility, we created a double mutant (PRMT1-H293G/E153Q) to further abolish PRMT1 activity. […] We then tested PRMT1-WT activity in the presence of various concentrations of PRMT1-H293G/E153Q (Fig. 7, G–L). […] These increasing trends were the same as that of PRMT1-E153Q. […] Again, similar to Figure 6, D–F, the increase in kcat started to slow down a bit at >1 μM concentrations of PRMT1-E153Q or PRMT1-H293G/E153Q, which is likely due to substrate overconsumption under these conditions.
Figure 7 Arginine methylation of various peptides by high-order oligomeric PRMT1-WT and PRMT1 mutants. Filter-binding assay was used to characterize the methyltransferase activity. Firstly, 0.05 μM of PRMT1 was incubated with various concentrations of PRMT1-E153Q or PRMT1-H293G/E153Q on ice for 20 min. Afterward, 2 μM radioactive [3H]-SAM and 48 μM SAM and 50 μM of indicated peptides was added and incubated for 30 min before quenching the reaction with 100% isopropanol. […]

[2] = test system: R4 peptide; experiment: Radiometric methyltransferase activity of PRMT1 mutants on R4 peptide; format: biochemical; conditions: various mutant concentrations, 50 μM peptide, 2 μM [3H]-SAM and 48 μM SAM, 30 min
Description: as §1
To perform PRMT1 and PRMT1 mutants (PRMT1-E153Q and PRMT1-H293G/E153Q) concentration-dependent measurement, each reaction contained various concentration of PRMT1 or PRMT1 mutant, 50 μM of peptide, and 50 μM SAM (48 μM cold and […] ^3H-SAM). The reaction buffer consisted of 50 mM Hepes pH 8.0, 10 mM NaCl, 0.5 mM EDTA, and 0.5 mM DTT. The reaction was incubated at room temperature for 30 min after being initiated with ^3H-SAM SAM. An equal amount of 100% isopropanol to the total reaction volume was used to quench the reaction. […]

T1 sequence (Q99873 11-353 isoform Q99873-3): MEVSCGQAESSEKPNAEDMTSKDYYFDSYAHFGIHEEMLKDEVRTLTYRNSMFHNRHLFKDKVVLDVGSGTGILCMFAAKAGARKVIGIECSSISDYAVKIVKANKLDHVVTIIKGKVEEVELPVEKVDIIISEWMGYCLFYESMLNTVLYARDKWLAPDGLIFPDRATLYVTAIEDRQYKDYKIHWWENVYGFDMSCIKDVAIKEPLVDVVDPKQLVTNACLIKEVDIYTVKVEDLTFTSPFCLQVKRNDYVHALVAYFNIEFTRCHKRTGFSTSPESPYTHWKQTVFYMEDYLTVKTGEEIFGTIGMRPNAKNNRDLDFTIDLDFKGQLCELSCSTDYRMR

PRMT1-H293G/E153Q: double mutant created to further abolish PRMT1 activity
kcat of PRMT1-WT (CPM / PRMT1-WT concentration) in presence of mutant [1]: increased as a function of PRMT1-H293G/E153Q concentration
methylated product amount (CPM) of PRMT1-WT in presence of mutant [1]: gradually went up as the concentrations of the double mutant increased
methyltransferase activity of PRMT1 mutant [2]: even weaker than PRMT1-E153Q, greatly diminished to near background level
